Laboratory results from paper PMC6699109, “A GH51 α-L-arabinofuranosidase from Talaromyces leycettanus strain JCM12802 that selectively drives synergistic lignocellulose hydrolysis” (Microbial Cell Factories, 2019).

Substrate: O=[N+]([O-])c1ccc(O[C@@H]2O[C@@H](CO)[C@H](O)[C@H]2O)cc1
Experiment: purified protein
Format: biochemical, Evansstolkia leycettana
Details: 0.1 M McIlvaine buffer pH 3.5, 55 °C, 5 min, 0.1–5 mM substrate

B1: TlAbf51 (Evansstolkia leycettana) (protein)
chain: MKTLPALAGGLAVAVTYLSGLAFAIDLTVSKTGGNASSPLLYGIMFEDINNSGDGGIHGQLLKNNGFQGNNPGLTAYAAVGNVTLSQDTSNPLSSAITSSLKVSVPPGTTGYVGFANTGYAGVPVVATTYANYFWMKGKYSGTINLRLVGTSSGIVYASHNITVHSTDSQFTYYDTSFTSSASPDGNNEWQLLFDGSQVAGSSLNFGLVQLFPPTYHSRYNGLRNDVASFLEEIKPSFLRFPGGNNLEGASPADRWKWNATIGPVVDRPGRQGDWGYPNTDALGLDEYLYWCEDMGMEPVLAVWSGLSLGGGIVSGSALDPYVDDIMNELEYLLGDMSTAGGRLRAQNGRTEPWPIKHVEVGNEDNLSSGCGTYASRFTQIYNAIHAAYPDITVIASTTDASCLPSSILEGVITDIHHYLNPDQFVALFNEWDNWPRTHPIFVGEYASTHNSDGSQTYWTRMRGSCGEAVYMIGMERNSDIVKMASYAPLLEHFNLAEWSPDLFGLDSSPDSITGSTSYYVQKMFSTNRGSTILPVTSDAGFGPVYWVASVSGSTYYVKLANYGSASETVTINIDGTKSGTLEMLSGAEMGSNYPHNVTITPQTSSVSGSGSFTVTMPAWAVAVLAVS
notes: secreted from Pichia pastoris GS115 (pPIC9, EcoRI/NotI), purified
- Km: 0.28 ± 0.01 mM
- kcat: 1600 s⁻¹
